Data as given in publication PMC6684614, “Histone chaperone exploits intrinsic disorder to switch acetylation specificity” (Nature Communications, 2019).

Biological target: the molecule itself
Test: solution structural model from NMR PRE distance restraints and SANS (M3 data-driven docking with HADDOCK); 145 PRE-derived distance restraints and six SANS curves; building blocks PDB 2hue and MD conformers of PDB 3q66; 33 structures, pairwise backbone RMSD 2.0 A; 50 mM citrate pH 6.5, 150 mM NaCl, 298 K

B1: Vps75 (vacuolar protein sorting-associated protein 75) homodimer (natural protein, S. cerevisiae, UniProt P53853 1-264, looked up)
chain: MMSDQENENEHAKAFLGLAKCEEEVDAIEREVELYRLNKMKPVYEKRDAYIDEIAEFWKIVLSQHVSFANYIRASDFKYIDTIDKIKVEWLALESEMYDTRDFSITFHFHGIEGDFKEQQVTKVFQIKKGKDDQEDGILTSEPVPIEWPQSYDSINPDLIKDKRSPEGKKKYRQGMKTIFGWFRWTGLKPGKEFPHGDSLASLFSEEIYPFCVKYYAEAQRDLEDEEGESGLSADGDSEDDDGSLGEVDLPLSDEEPSSKKRKV
notes: Vps75, S. cerevisiae, full length; the C-terminal acidic domain (CTAD) is 226-264; isotope-labelled (ILV methyl, 15N, 2H) in some samples; also called Vps75_(2); ScVps75; source: E. coli BL21(DE3), purified (IMAC, TEV cleavage, ion exchange, SEC); not shown: His6, N-terminal, cleaved
  stoichiometry N: 2 subunits
